In US20240115704A1, “TREATMENT OF CANCER WITH NK CELLS AND A CD38-TARGETED ANTIBODY” (Artiva Biotherapeutics, Inc., priority 2021, published 2024):

Target: CD38 (human) (UniProt P28907)
Test: cell-based or functional assay

daratumumab (antibody)
ADCC (percent specific lysis) of MM.1R multiple myeloma cells by AB-101, 0.31:1 E:T, 2 µg/mL daratumumab, 4 h: 4.88%
ADCC (percent specific lysis) of MM.1R multiple myeloma cells by AB-101, 10:1 E:T, 2 µg/mL daratumumab, 4 h: 42.4%
ADCC (percent specific lysis) of MM.1S multiple myeloma cells by AB-101, 0.31:1 E:T, 2 µg/mL daratumumab, 4 h: 2.34%
ADCC (percent specific lysis) of MM.1S multiple myeloma cells by AB-101, 10:1 E:T, 2 µg/mL daratumumab, 4 h: 19.8%
ADCC (percent specific lysis) of NCI-H929 multiple myeloma cells by AB-101, 0.31:1 E:T, 2 µg/mL daratumumab, 4 h: 3.38%
ADCC (percent specific lysis) of NCI-H929 multiple myeloma cells by AB-101, 10:1 E:T, 2 µg/mL daratumumab, 4 h: 46.4%
ADCC (percent specific lysis) of RPMI 8226 multiple myeloma cells by AB-101, 0.31:1 E:T, 2 µg/mL daratumumab, 4 h: 8.75%
ADCC (percent specific lysis) of RPMI 8226 multiple myeloma cells by AB-101, 10:1 E:T, 2 µg/mL daratumumab, 4 h: 58.2%
complement-dependent cytotoxicity of Daudi cells with human complement serum: daratumumab concentration at which lysis was saturated: < 0.41 µg/mL
daratumumab-mediated ADCC (percent specific lysis) of Daudi cells by AB-101, 10:1 E:T, 2 µg/mL daratumumab, 4 h: 79.5%
